Here are results for 1 molecule from publication PMC11018839, “ANKFY1 bridges ATG2A-mediated lipid transfer from endosomes to phagophores” (Cell Discovery, 2024).

In this assay the target is T1, purified Flag-ATG2A-His protein (human, UniProt Q2TAZ0 1-1938).
T1 construct: ATG2A, human; Flag-ATG2A-His with a C-terminal His tag; not shown: His tag, C-terminal, kept
Description: liposome co-flotation; 100 nm liposomes with 5% PI3P (2% Rhod-PE, 30% POPE, 63% DOPC), 1 mM lipids, incubated with 4.28 uM ANKFY1, 0.5 uM ATG2A or both at 37 °C for 1 h; 50 mM HEPES pH 8.0, 300 mM NaCl, 1 mM TCEP; floated on a histodenz gradient; topmost fraction analysed by SDS-PAGE and western blot. To be noted: both partners purified. Background: In western blotting, separated proteins are transferred to a membrane and probed.

T1 sequence (Q2TAZ0 whole entry): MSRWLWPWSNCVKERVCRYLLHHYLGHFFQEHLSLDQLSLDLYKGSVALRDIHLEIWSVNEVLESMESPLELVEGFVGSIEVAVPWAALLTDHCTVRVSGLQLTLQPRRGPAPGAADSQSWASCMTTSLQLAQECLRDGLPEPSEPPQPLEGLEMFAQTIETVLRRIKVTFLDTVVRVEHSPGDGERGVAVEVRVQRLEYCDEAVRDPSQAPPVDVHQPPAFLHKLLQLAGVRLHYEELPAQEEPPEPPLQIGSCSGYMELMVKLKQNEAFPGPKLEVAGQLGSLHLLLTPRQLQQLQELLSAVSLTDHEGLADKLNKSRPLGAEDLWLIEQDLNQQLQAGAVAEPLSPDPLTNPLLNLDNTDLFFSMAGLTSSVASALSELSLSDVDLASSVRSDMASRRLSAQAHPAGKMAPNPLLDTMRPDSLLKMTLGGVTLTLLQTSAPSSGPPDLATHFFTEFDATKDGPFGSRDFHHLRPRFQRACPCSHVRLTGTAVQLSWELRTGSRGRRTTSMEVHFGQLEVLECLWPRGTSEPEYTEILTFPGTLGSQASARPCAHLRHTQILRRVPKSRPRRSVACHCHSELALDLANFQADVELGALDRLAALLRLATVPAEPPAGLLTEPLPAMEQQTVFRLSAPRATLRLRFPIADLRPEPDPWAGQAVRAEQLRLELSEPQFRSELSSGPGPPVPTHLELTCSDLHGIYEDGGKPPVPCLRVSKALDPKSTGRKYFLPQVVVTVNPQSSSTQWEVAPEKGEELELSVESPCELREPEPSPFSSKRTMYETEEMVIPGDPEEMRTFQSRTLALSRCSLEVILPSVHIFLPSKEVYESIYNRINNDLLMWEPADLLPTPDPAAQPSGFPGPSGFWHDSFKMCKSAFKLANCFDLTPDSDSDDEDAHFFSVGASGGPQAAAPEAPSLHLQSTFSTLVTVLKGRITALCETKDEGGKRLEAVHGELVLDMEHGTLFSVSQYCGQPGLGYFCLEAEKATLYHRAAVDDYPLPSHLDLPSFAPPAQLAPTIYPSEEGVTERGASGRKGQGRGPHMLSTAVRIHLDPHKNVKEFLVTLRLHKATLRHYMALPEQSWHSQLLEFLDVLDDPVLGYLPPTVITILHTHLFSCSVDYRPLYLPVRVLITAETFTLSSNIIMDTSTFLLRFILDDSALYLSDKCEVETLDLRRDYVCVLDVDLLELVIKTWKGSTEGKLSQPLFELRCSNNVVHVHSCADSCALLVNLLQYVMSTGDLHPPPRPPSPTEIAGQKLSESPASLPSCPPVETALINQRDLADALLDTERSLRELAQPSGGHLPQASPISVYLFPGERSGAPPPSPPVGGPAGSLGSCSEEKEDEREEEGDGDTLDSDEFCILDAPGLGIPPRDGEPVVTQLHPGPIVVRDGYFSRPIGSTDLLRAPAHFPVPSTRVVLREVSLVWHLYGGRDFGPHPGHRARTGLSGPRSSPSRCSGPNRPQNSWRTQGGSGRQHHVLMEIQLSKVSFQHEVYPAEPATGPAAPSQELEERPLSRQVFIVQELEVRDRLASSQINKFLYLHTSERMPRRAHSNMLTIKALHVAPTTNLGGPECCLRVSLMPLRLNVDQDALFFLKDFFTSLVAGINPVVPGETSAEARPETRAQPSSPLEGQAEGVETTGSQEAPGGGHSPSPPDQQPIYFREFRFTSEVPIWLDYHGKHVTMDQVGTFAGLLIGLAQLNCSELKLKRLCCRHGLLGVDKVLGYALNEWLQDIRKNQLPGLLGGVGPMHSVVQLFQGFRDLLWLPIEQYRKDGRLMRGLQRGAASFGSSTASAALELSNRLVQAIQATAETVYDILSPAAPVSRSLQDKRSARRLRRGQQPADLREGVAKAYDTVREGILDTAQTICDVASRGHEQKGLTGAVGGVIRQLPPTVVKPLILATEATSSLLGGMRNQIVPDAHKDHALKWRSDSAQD

B1: purified Flag-ANKFY1 full-length protein (natural protein, human, UniProt Q9P2R3 1-1169, looked up)
chain: MAEEEVAKLEKHLMLLRQEYVKLQKKLAETEKRCALLAAQANKESSSESFISRLLAIVADLYEQEQYSDLKIKVGDRHISAHKFVLAARSDSWSLANLSSTKELDLSDANPEVTMTMLRWIYTDELEFREDDVFLTELMKLANRFQLQLLRERCEKGVMSLVNVRNCIRFYQTAEELNASTLMNYCAEIIASHWDDLRKEDFSSMSAQLLYKMIKSKTEYPLHKAIKVEREDVVFLYLIEMDSQLPGKLNEADHNGDLALDLALSRRLESIATTLVSHKADVDMVDKSGWSLLHKGIQRGDLFAATFLIKNGAFVNAATLGAQETPLHLVALYSSKKHSADVMSEMAQIAEALLQAGANPNMQDSKGRTPLHVSIMAGNEYVFSQLLQCKQLDLELKDHEGSTALWLAVQHITVSSDQSVNPFEDVPVVNGTSFDENSFAARLIQRGSHTDAPDTATGNCLLQRAAGAGNEAAALFLATNGAHVNHRNKWGETPLHTACRHGLANLTAELLQQGANPNLQTEEALPLPKEAASLTSLADSVHLQTPLHMAIAYNHPDVVSVILEQKANALHATNNLQIIPDFSLKDSRDQTVLGLALWTGMHTIAAQLLGSGAAINDTMSDGQTLLHMAIQRQDSKSALFLLEHQADINVRTQDGETALQLAIRNQLPLVVDAICTRGADMSVPDEKGNPPLWLALANNLEDIASTLVRHGCDATCWGPGPGGCLQTLLHRAIDENNEPTACFLIRSGCDVNSPRQPGANGEGEEEARDGQTPLHLAASWGLEETVQCLLEFGANVNAQDAEGRTPIHVAISSQHGVIIQLLVSHPDIHLNVRDRQGLTPFACAMTFKNNKSAEAILKRESGAAEQVDNKGRNFLHVAVQNSDIESVLFLISVHANVNSRVQDASKLTPLHLAVQAGSEIIVRNLLLAGAKVNELTKHRQTALHLAAQQDLPTICSVLLENGVDFAAVDENGNNALHLAVMHGRLNNIRVLLTECTVDAEAFNLRGQSPLHILGQYGKENAAAIFDLFLECMPGYPLDKPDADGSTVLLLAYMKGNANLCRAIVRSGARLGVNNNQGVNIFNYQVATKQLLFRLLDMLSKEPPWCDGSYCYECTARFGVTTRKHHCRHCGRLLCHKCSTKEIPIIKFDLNKPVRVCNICFDVLTLGGVS
notes: ANKFY1, human, full length (ANKFY1-FL), N-terminal Flag tag, pCDNA4-TO vector; also called ANKFY1-FL; ANKFY1-Flag; source: 293S cells, purified (anti-Flag M2 resin, eluted with 3x Flag peptide); not shown: Flag, N-terminal, kept
For B1, the binding result is on record as “binds”.
